Data reported in the supplement of paper PMC11246515.
± gives the standard deviation of the averaged measurements.

Test: total protein half-life in vivo (active degradation + dilution); higher = more stable protein
[1] = E. coli NCM3722 delta-clpP delta-lon delta-hslV, growth: N-lim chemostat, doubling time 6 h
[2] = E. coli NCM3722 delta-clpP, growth: N-lim chemostat, doubling time 6 h
[3] = E. coli NCM3722 delta-hslV, growth: N-lim chemostat, doubling time 6 h
[4] = E. coli NCM3722 delta-lon, growth: N-lim chemostat, doubling time 6 h
[5] = E. coli NCM3722 delta-smpB, growth: N-lim chemostat, doubling time 6 h
[6] = wild type E. coli NCM3722, growth: C-lim chemostat, doubling time 3 h
[7] = wild type E. coli NCM3722, growth: C-lim chemostat, doubling time 6 h
[8] = wild type E. coli NCM3722, growth: C-lim chemostat, doubling time 12 h
[9] = wild type E. coli NCM3722, growth: N-lim chemostat, doubling time 6 h
[10] = wild type E. coli NCM3722, growth: N-lim chemostat, doubling time 12 h
[11] = wild type E. coli NCM3722, growth: P-lim chemostat, doubling time 6 h
[12] = wild type E. coli NCM3722, growth: P-lim chemostat, doubling time 12 h

MPQISRYSDEQVEQLLAELLNVLEKHKAPTDLSLMVLGNMVTNLINTSIAPAQRQAIANSFARALQSSINEDKAH [P0AD24]
total protein half-life in vivo [1]: 6.24 ± 0.65 h
total protein half-life in vivo [2]: 4.76 h
total protein half-life in vivo [3]: 5.69 ± 0.2 h
total protein half-life in vivo [4]: 4.63 ± 1.3 h
total protein half-life in vivo [5]: 4.16 ± 1.4 h
total protein half-life in vivo [6]: 2.99 ± 0.041 h
total protein half-life in vivo [7]: 5.16 ± 0.18 h
total protein half-life in vivo [8]: 10.1 ± 0.73 h
total protein half-life in vivo [9]: 3.54 ± 0.42 h
total protein half-life in vivo [10]: 9.19 h
total protein half-life in vivo [11]: 5.83 h
total protein half-life in vivo [12]: 10.4 h

MAKNRSRRLRKKMHIDEFQELGFSVAWRFPEGTSEEQIDKTVDDFINEVIEPNKLAFDGSGYLAWEGLICMQEIGKCTEEHQAIVRKWLEERKLDEVRTSELFDVWWD
total protein half-life in vivo [1]: 5.96 ± 0.18 h
total protein half-life in vivo [2]: 6.44 ± 1.1 h
total protein half-life in vivo [3]: 6.42 ± 0.59 h
total protein half-life in vivo [4]: 6.34 ± 0.93 h
total protein half-life in vivo [5]: 5.56 ± 0.31 h
total protein half-life in vivo [6]: 3.43 ± 0.076 h
total protein half-life in vivo [7]: 5.41 ± 0.22 h
total protein half-life in vivo [8]: 9.8 ± 0.27 h
total protein half-life in vivo [9]: 5.26 h
total protein half-life in vivo [10]: 12.6 ± 0.72 h
total protein half-life in vivo [11]: 5.22 ± 0.22 h
total protein half-life in vivo [12]: 11.7 ± 0.92 h

MPKLVTWMNNQRVGELTKLANGAHTFKYAPEWLASRYARPLSLSLPLQRGNITSDAVFNFFDNLLPDSPIVRDRIVKRYHAKSRQPFDLLSEIGRDSVGAVTLIPEDETVTHPIMAWEKLTEARLEEVLTAYKADIPLGMIREENDFRISVAGAQEKTALLRIGNDWCIPKGITPTTHIIKLPIGEIRQPNATLDLSQSVDNEYYCLLLAKELGLNVPDAEIIKAGNVRALAVERFDRRWNAERTVLLRLPQEDMCQTFGLPSSVKYESDGGPGIARIMAFLMGSSEALKDRYDFMKFQVFQWLIGATDGHAKNFSVFIQAGGSYRLTPFYDIISAFPVLGGTGIHISDLKLAMGLNASKGKKTAIDKIYPRHFLATAKVLRFPEVQMHEILSDFARMIPAALDNVKTSLPTDFPENVVTAVESNVLRLHGRLSREYGSK
total protein half-life in vivo [1]: 5.44 ± 0.06 h
total protein half-life in vivo [3]: 5.63 ± 0.078 h
total protein half-life in vivo [4]: 5.73 ± 0.54 h
total protein half-life in vivo [5]: 5.22 ± 0.39 h
total protein half-life in vivo [6]: 3 ± 0.061 h
total protein half-life in vivo [7]: 5.65 ± 0.24 h
total protein half-life in vivo [8]: 10.8 ± 0.14 h
total protein half-life in vivo [9]: 5.21 ± 0.73 h
total protein half-life in vivo [10]: 9.66 ± 1.8 h
total protein half-life in vivo [11]: 6.37 ± 0.53 h

MAITGIFFGSDTGNTENIAKMIQKQLGKDVADVHDIAKSSKEDLEAYDILLLGIPTWYYGEAQCDWDDFFPTLEEIDFNGKLVALFGCGDQEDYAEYFCDALGTIRDIIEPRGATIVGHWPTAGYHFEASKGLADDDHFVGLAIDEDRQPELTAERVEKWVKQISEELHLDEILNA
total protein half-life in vivo [1]: 5.32 ± 1.2 h
total protein half-life in vivo [2]: 5.07 ± 0.65 h
total protein half-life in vivo [3]: 4.45 ± 0.27 h
total protein half-life in vivo [4]: 4.59 ± 0.44 h
total protein half-life in vivo [5]: 4.64 ± 0.75 h
total protein half-life in vivo [7]: 5.31 ± 0.73 h
total protein half-life in vivo [8]: 7.02 ± 3 h
total protein half-life in vivo [9]: 4.71 ± 0.14 h
total protein half-life in vivo [10]: 8.16 ± 0.92 h
total protein half-life in vivo [11]: 6.33 ± 0.46 h

MAVSAKYDEFNHWWATEGDWVEEPNYRRNGMSGVQCVERNGKKLYVKRMTHHLFHSVRYPFGRPTIVREVAVIKELERAGVIVPKIVFGEAVKIEGEWRALLVTEDMAGFISIADWYAQHAVSPYSDEVRQAMLKAVALAFKKMHSINRQHGCCYVRHIYVKTEGNAEAGFLDLEKSRRRLRRDKAINHDFRQLEKYLEPIPKADWEQVKAYYYAM
total protein half-life in vivo [1]: 5.26 ± 0.28 h
total protein half-life in vivo [2]: 1.09 h
total protein half-life in vivo [3]: 3.57 h
total protein half-life in vivo [4]: 1.15 ± 0.09 h
total protein half-life in vivo [5]: 0.534 h
total protein half-life in vivo [9]: 0.927 h
total protein half-life in vivo [11]: 0.144 h

MMRIALFLLTNLAVMVVFGLVLSLTGIQSSSVQGLMIMALLFGFGGSFVSLLMSKWMALRSVGGEVIEQPRNERERWLVNTVATQARQAGIAMPQVAIYHAPDINAFATGARRDASLVAVSTGLLQNMSPDEAEAVIAHEISHIANGDMVTMTLIQGVVNTFVIFISRILAQLAAGFMGGNRDEGEESNGNPLIYFAVATVLELVFGILASIITMWFSRHREFHADAGSAKLVGREKMIAALQRLKTSYEPQEATSMMALCINGKSKSLSELFMTHPPLDKRIEALRTGEYLK
total protein half-life in vivo [1]: 4.24 ± 0.051 h
total protein half-life in vivo [2]: 5.6 ± 0.59 h
total protein half-life in vivo [3]: 5.25 ± 0.11 h
total protein half-life in vivo [4]: 4.77 ± 0.29 h
total protein half-life in vivo [5]: 4.77 ± 0.48 h
total protein half-life in vivo [6]: 2.45 ± 0.076 h
total protein half-life in vivo [7]: 4.83 ± 0.3 h
total protein half-life in vivo [8]: 8.92 ± 1.5 h
total protein half-life in vivo [9]: 5.48 ± 0.92 h
total protein half-life in vivo [10]: 10.5 ± 1.2 h
total protein half-life in vivo [11]: 4.81 ± 0.22 h
total protein half-life in vivo [12]: 7.97 ± 0.28 h

MKKSLLGLTFASLMFSAGSAVAADYKIDKEGQHAFVNFRIQHLGYSWLYGTFKDFDGTFTFDEKNPAADKVNVTINTTSVDTNHAERDKHLRSADFLNTAKYPQATFTSTSVKKDGDELDITGDLTLNGVTKPVTLEAKLIGQGDDPWGGKRAGFEAEGKIKLKDFNIKTDLGPASQEVDLIISVEGVQQK [P0A8X2]
total protein half-life in vivo [1]: 5.61 ± 0.24 h
total protein half-life in vivo [2]: 6.32 ± 0.21 h
total protein half-life in vivo [3]: 6.38 ± 0.11 h
total protein half-life in vivo [4]: 6.59 ± 0.48 h
total protein half-life in vivo [5]: 6.61 ± 1.1 h
total protein half-life in vivo [6]: 3.22 ± 0.24 h
total protein half-life in vivo [8]: 10.6 ± 4 h
total protein half-life in vivo [9]: 6.19 ± 0.62 h
total protein half-life in vivo [10]: 10.9 ± 2.2 h
total protein half-life in vivo [11]: 6.05 ± 0.28 h
total protein half-life in vivo [12]: 14 ± 1.4 h

MKKIALIIGSMIAGGIISAAGFTWVAKAEPPAEKTSTAERKILFWYDPMYPNTRFDKPGKSPFMDMDLVPKYADEESSASGVRIDPTQTQNLGVKTATVTRGPLTFAQSFPANVSYNEYQYAIVQARAAGFIDKVYPLTVGDKVQKGTPLLDLTIPDWVEAQSEYLLLRETGGTATQTEGILERLRLAGMPEADIRRLIATQKIQTRFTLKAPIDGVITAFDLRAGMNIAKDNVVAKIQGMDPVWVTAAIPESIAWLVKDASQFTLTVPARPDKTLTIRKWTLLPGVDAATRTLQLRLEVDNADEALKPGMNAWLQLNTASEPMLLIPSQALIDTGSEQRVITVDADGRFVPKRVAVFQASQGVTALRSGLAEGEKVVSSGLFLIDSEANISGALERMRSESATHAH
total protein half-life in vivo [1]: 2.95 h
total protein half-life in vivo [2]: 4.8 h
total protein half-life in vivo [3]: 5.69 ± 0.66 h
total protein half-life in vivo [4]: 4.62 h
total protein half-life in vivo [5]: 4.32 ± 1.3 h
total protein half-life in vivo [6]: > 4 h
total protein half-life in vivo [7]: 5.79 h
total protein half-life in vivo [8]: > 16 h
total protein half-life in vivo [9]: 5.73 ± 0.53 h
total protein half-life in vivo [10]: 10.2 ± 0.68 h
total protein half-life in vivo [11]: 5.52 ± 0.11 h
total protein half-life in vivo [12]: 10.7 ± 0.35 h
